Results: publication PMC9696579 (Nature structural & molecular biology, 2022)
Where no end group is shown, it is not given here. 3xPEG = linker of three PEG units

Legend:
[1] = target: human PKA-Cα (PKA catalytic subunit alpha), purified, used in fluorescence polarization (human, UniProt P17612 1-351); experiment: fluorescence polarisation
[2] = target: mouse PKA-Cα (PKA catalytic subunit alpha), purified (mouse, UniProt P05132 1-351); experiment: fluorescence polarisation

{FAM-3xPEG}-SADVSSAWAQHVTKMVARRGAILP [FAM-labeled standard SMO PKI peptide (SMO residues 615–638)]
Kd [1]: 823 nM
Kd [2]: 911 nM
